# Experimental data reported in patent US7745109B2, “Regulation of cell growth by MUC1” (Dana-Farber Cancer Insitute, Inc., priority 2003, dated 2010).
# Molecular target: T1, MUC1-p120 complexes (Homo sapiens, UniProt O60716)
# T1 sequence (O60716 1-968): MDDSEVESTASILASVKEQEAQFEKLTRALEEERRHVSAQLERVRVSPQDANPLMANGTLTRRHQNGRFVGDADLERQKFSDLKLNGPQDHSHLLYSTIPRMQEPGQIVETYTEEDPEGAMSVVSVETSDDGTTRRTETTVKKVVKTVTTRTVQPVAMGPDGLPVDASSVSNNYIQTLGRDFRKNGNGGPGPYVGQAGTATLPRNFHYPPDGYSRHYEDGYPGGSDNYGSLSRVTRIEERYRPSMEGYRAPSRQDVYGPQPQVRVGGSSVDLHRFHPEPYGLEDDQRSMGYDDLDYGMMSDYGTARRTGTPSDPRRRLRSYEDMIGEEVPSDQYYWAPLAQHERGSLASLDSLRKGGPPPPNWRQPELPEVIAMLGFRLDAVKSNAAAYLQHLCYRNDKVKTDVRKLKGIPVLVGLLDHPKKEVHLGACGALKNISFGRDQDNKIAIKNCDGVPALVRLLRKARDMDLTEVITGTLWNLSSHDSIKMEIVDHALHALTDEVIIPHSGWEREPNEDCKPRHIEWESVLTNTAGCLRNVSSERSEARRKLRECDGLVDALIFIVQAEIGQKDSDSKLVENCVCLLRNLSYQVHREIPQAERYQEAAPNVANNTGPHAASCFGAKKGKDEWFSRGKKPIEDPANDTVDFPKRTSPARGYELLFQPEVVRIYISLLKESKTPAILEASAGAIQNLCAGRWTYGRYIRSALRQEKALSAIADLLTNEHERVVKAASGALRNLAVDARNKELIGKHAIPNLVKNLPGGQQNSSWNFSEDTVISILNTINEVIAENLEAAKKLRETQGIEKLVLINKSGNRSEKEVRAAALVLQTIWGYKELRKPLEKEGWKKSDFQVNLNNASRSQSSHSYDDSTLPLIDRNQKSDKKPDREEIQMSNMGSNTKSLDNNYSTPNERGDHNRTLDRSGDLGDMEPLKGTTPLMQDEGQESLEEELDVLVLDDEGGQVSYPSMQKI
# Assay: Inhibition of MUC1/CD binding to GST-p120 by peptides (glutathione bead precipitation, anti-MUC1/CD immunoblot)
# Details: peptide incubated with MUC1/CD and GST-p120; immunoblot with anti-MUC1/CD (FIG. 7C)
# Procedure: FIG. 7C is a pair of photographs of immunoblots. In the table above the immunoblots is indicated the mixtures of MUC1/CD, GST-p120, and GST which were incubated in the absence of inhibitor peptide (first and fourth lanes of both immunoblots) or in the presence of either a peptide with the amino acid sequence […] (SEQ ID NO:7) or a peptide with the amino acid sequence […] (SEQ ID NO:8). The four mixtures were incubated with glutathione-Sepharose 4B™ beads and proteins precipitated by the beads were subjected to immunoblot analysis with anti-MUC1/CD (“IB: anti-MUC1/CD”) (top immunoblot) or anti-p120 (“IB: anti-p120”) ([…]). The positions of MUC1/CD and p120 on the immunoblots are indicated.
# To identify the site in MUC1/CD that binds to p120, full-length MUC1/CD and the N- and C-terminal fragments (FIG. 7A) were incubated with purified GST-p120. […] To further localize the site, two peptides from the overlapping region were prepared. […] These findings indicate that p120 interacts with the […] site (SEQ ID NO:7) in MUC1.
sequence,measurement,value
MSEYPTYHTH (listed as Homo sapiens) [peptide from the MUC1/CD region common to the N- and C-terminal fragments],inhibition of the formation of MUC1-p120 complexes,inhibits the formation of MUC1-p120 complexes
